Residues, ends and D or L forms follow the SMILES beside them. *: point of attachment. Cbz = O=C(OCc1ccccc1)*
Legend:
[1] = tested on: transgenic plants expressing full-length HopM1; test: DEX spraying of transgenic plants expressing full-length HopM1; assay type: in vivo, Arabidopsis
AtMIN7 = test: Proteasome/protease inhibitors on HopM1-mediated destabilization of AtMIN7 in N. benthamiana leaves (immunoblot); assay type: cell-based, Arabidopsis thaliana; details: AtMIN7:HA and 6×His:HopM1 1-712 co-expressed
Procedure: AtMIN-HA and 6×His-HopM1 proteins were detected using the HA and 6×His epitope antibodies, respectively. AtMIN7-HA was pulled down with HopM1-300 but not with 6×His-HopM1301-712; and (C) Western blot and reverse transcription polymerase chain reaction analyses of HopM1-dependent destabilization of AtMIN7 in Arabidopsis plants. Leaves of Col-0 gl1 plants were infiltrated with water or 1×10^8 CFUs per milliliter of DCEL mutant bacteria with or without pORF43 and harvested 10 hours later. The endogenousAtMIN7 protein—detected with the use of a rabbit polyclonal AtMIN7 antibody—was absent in leaves infiltrated with DCEL mutant bacteria (pORF43) that produce HopM1; however, the AtMIN7 transcript level was not reduced. […] AtMIN7:HA and 6×His:HopM11-712 proteins were detected with HA and 6×His epitope antibodies, respectively.
N. benthamiana plants were transiently transformed with HopM1 and AtMIN proteins. In brief, fully expanded N. benthamiana leaves were co-infiltrated with Agrobacterium tumefaciens C58 C1 (for an example of co-infiltration techniques, see, Hellens, et al. (2005) Plant Methods, 1:13; herein incorporated by reference) comprising plasmids and genes described herein (for example, see, Bechtold, et al. (1993) Comptes Rendus De L Academie Des Sciences Serie Iii-Sciences De La Vie-Life Sciences 316(10):1194-1199; herein incorporated by reference). […]

AtMIN7-HA = biological target: T1, AtMIN7-HA (Arabidopsis thaliana, UniProt F4IXW2, DEL212-213/INS429[…]); test: Protein pull-down assay in N. benthamiana leaves; assay type: binding; details: Ni-NTA pull-down, immunoblot
T1 construct: expressed in transfected cells; host or cells: Nicotiana benthamiana leaves, Agrobacterium tumefaciens C58C1 co-infiltration (pBI121-AtMIN or pBAR1-AtMIN, CaMV 35S promoter)
Description: N. benthamiana plants were transiently transformed with HopM1 and AtMIN proteins. In brief, fully expanded N. benthamiana leaves were co-infiltrated with Agrobacterium tumefaciens C58 C1 (for an example of co-infiltration techniques, see, Hellens, et al. (2005) Plant Methods, 1:13; herein incorporated by reference) comprising plasmids and genes described herein (for example, see, Bechtold, et al. (1993) Comptes Rendus De L Academie Des Sciences Serie Iii-Sciences De La Vie-Life Sciences 316(10):1194-1199; herein incorporated by reference).
Protein pull-down analysis methods: N. benthamiana leaf discs were homogenized in lysis buffer (50 mM Tris-HCl pH=8.0, 250 mM NaCl, 10 mM β-mercaptoethanol, 1% Triton X100, 1 mM PMSF, plant protease inhibitor cocktail [Sigma Co.]). Total protein extracts were collected after centrifugation of the homogenate at 20,000-×g for 15 min at 4° C. to remove insoluble materials. The supernatant was incubated with Ni-NTA agarose beads (Qiagen) with gentle shaking for 1 hour at 4° C., followed by centrifugation at 15,000-×g for 1 min to pull down 6×His-HopM1 and its interacting proteins. Beads were then washed three times with lysis buffer and resuspended in 1×SDS-PAGE sample buffer for SDS-PAGE gel and/or immunoblot analyses. […] AtMIN10-HA was detected using the HA epitope antibody.

Pst DC3000 ΔCEL mutant = test: Bacterial multiplication and disease symptoms in HopM1 transgenic Arabidopsis plants; assay type: in vivo, Pseudomonas syringae; details: protein expressed in transgenic Arabidopsis (Col-0 gl1), DEX-induced
Procedure: (§1) Following inoculation, infected plants were monitored daily over a 3- to 4-day period for symptom development and bacterial multiplication. For experiments described in FIGS. 1 and 5, plants were sprayed with 30 μM dexamethasone (DEX) 24 h before bacterial inoculation (1×10^6 cfu/ml).
(§2) Leaves were harvested and surface sterilized as follows: 1) whole leaves were removed from a host plant and gently mixed in a 70% ethanol solution for 1 minute. Leaves were blotted briefly on paper towels then rinsed in sterile distilled water for 1 minute, then blotted dry on paper towels. Leaf disks were excised from leaves with a 0.5 cm^2 or smaller cork borer, depending on the size of the sample leaves; 2) leaf disks from the leaves of 2 or more independent replicate plants were pooled for a single tissue sample and placed in a 1.5-mL microfuge tube with 100 μL sterile distilled water, the amount of leaf tissue per tube was recorded as leaf surface area. Three or more samples were harvested for each time point. […] The number of serial dilutions necessary to get countable colonies were determined for each sample, however dilutions to 10^−7 were usually sufficient for any bacterial strain; 7) The samples were plated on the appropriate medium (e.g., Low salt Luria Bertani) supplemented with the necessary antibiotics to select for the specific inoculated bacterial strain. […]

[2] = tested on: Pst DC3000 ΔCEL mutant-pORF43 bacteria; test: as above; assay type: in vivo, Pseudomonas syringae
Procedure: as §1, §2

[3] = tested on: Arabidopsis Y2H cDNA library; test: Yeast two-hybrid (Y2H) screening with HopM1 baits; assay type: binding; details: protein used as bait
Description: A LexA-based yeast two-hybrid system was used for screening an Arabidopsis Y2H cDNA library using full-length HopM1 and the dominant-negative domain of HopM1 (HopM11-300) as bait, in separate screenings. This system was based upon a pGilda Lex A expression vector (CLONTECHniques, OCTOBER 1999 p. 26-27, Clontech Laboratories Inc.; herein incorporated by reference in its entirety) for expressing HopM1 proteins in combination with a lacZ reporter gene on a separate plasmid that autonomously replicated in yeast (CLONTECHniques, OCTOBER 1999 p. 26-27, Clontech Laboratories Inc.; herein incorporated by reference in its entirety), see below for addition information (see, MATCHMAKER LexA Two-Hybrid System Catalog #K1609-1 and MATCHMAKER LexA Libraries User Manual (PT3040-1) Version It PR67300 and (Yeast Protocols Handbook, Protocol # PT3024-1 Version # PR13103, published 14 Mar. 2001; herein incorporated by reference in its entirety).
hopM1 DNA fragments were amplified by PCR using the primers listed below and standard PCR procedures then fragments were isolated and cloned into a bait vector pGilda Lex A (resistance to ampicillin (100 μg/ml) to E. coli hosts; Protocol # PT3147-5; Version # PR81829; Clontech Laboratories, Inc.; herein incorporated by reference in its entirety). […]

T1 sequence (F4IXW2 with tags, fused parts or gaps DEL212-213/INS429[withheld]): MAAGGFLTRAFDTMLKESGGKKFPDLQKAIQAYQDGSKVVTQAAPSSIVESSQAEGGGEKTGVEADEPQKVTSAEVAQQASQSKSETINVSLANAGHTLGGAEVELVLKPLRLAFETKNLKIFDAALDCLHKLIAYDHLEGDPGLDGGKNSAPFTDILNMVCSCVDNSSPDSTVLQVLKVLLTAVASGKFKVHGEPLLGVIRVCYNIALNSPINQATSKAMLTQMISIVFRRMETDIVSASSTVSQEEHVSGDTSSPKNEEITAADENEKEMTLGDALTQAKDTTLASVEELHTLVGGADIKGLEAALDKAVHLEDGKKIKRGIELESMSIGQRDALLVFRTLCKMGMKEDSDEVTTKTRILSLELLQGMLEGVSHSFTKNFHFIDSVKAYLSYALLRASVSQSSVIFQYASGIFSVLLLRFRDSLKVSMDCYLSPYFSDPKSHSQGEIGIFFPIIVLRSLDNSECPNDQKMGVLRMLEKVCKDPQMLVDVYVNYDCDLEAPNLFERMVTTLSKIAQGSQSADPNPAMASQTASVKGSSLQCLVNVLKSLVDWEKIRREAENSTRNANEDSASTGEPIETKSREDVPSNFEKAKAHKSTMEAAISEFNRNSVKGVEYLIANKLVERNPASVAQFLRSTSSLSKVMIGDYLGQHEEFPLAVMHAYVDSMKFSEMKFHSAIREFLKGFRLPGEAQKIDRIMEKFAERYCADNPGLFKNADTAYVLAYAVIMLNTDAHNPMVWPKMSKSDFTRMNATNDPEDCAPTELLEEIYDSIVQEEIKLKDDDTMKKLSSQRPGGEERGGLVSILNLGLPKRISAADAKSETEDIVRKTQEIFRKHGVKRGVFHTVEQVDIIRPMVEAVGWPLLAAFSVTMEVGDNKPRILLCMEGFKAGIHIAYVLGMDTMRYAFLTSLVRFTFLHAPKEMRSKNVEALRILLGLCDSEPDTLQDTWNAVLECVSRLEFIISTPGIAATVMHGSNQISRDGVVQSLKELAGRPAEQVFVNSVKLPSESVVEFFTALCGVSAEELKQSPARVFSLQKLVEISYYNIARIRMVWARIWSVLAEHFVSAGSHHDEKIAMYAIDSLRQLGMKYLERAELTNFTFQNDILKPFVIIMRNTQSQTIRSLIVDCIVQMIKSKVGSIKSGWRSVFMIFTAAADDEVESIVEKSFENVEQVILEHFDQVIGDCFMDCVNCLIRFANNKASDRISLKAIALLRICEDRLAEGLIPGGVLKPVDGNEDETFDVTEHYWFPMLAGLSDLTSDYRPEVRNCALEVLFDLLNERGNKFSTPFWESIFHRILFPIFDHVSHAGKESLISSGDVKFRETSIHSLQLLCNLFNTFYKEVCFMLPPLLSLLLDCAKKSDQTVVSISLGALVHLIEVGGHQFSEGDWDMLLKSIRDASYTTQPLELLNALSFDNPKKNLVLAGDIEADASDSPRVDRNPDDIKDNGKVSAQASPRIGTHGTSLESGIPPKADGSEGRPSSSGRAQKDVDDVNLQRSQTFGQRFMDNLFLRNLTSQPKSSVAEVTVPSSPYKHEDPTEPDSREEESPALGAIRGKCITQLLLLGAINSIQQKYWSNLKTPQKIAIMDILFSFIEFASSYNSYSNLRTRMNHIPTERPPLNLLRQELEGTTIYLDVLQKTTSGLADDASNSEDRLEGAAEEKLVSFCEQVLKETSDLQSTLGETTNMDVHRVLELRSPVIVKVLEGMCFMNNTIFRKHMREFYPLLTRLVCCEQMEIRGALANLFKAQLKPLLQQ

Molecule: C[C@@H]1C[C@H]2[C@@H]3CCC4=CC(=O)C=C[C@]4(C)[C@@]3(F)[C@@H](O)C[C@]2(C)[C@@]1(O)C(=O)CO [DEX, dexamethasone]
- leaf necrosis ([1]; 0.003 μM spray): did not induce leaf necrosis
- leaf necrosis ([1]; 30 μM DEX spray): induced rapid leaf necrosis
- time to leaf necrosis ([1]; 30 μM DEX spray): ≤ 10 h

Molecule: CC(C)C[C@@H](C=O)NC(=O)[C@H](CC(C)C)NC(=O)[C@H](CC(C)C)NC(=O)OCc1ccccc1 [MG132] (Cbz-Leu-Leu-Leu-aldehyde)
- HopM1-mediated destabilization of AtMIN7 (AtMIN7): blocked

Molecule: CC[C@H](C)[C@H](NC(=O)[C@H]([C@@H](C)CC)N(C)C(C)=O)C(=O)N[C@H](C(=O)N[C@@H](CC(C)C)C(=O)[C@@]1(C)CO1)[C@@H](C)O [epoxomicin]
- HopM1-mediated destabilization of AtMIN7 (AtMIN7): blocked

B1: HopM1301-712: HopM1 truncated derivative, amino acids 301-712 (protein)
chain: GPIVAAAVPQFLSSMTHLGYVRLSTSDKLRDTIPETSSDANMLKASIIGMVAGIAHETVNSVVKPMFQAALQKTGLNERLNMVPMKAVDTNTVIPDPFELKSEHGELVKKTPEEVAQDKAFVKSERALLNQKKVQGSSTHPVGELMAYSAFGGSQAVRQMLNDVHQINGQTLSARALASGFGGAVSASSQTLLQLKSNYVDPQGRKIPVFTPDRAESDLKKDLLKGMDLREPSVRTTFYSKALSGIQSSALTSALPPVTAQAEGASGTLSAGAILRNMALAATGSVSYLSTLYTNQSVTAEAKALKAAGMGGATPMLDRTETALNNIRHPNRESLPHTFQKSTLSGIPRVAENAYHMGRGALQLPTQMAVDTVRVVDEGVLNAVASAREALKQPTKDDDALRALEEGLLDPR
modifications: left off: small tags and cut ends
- physical interaction with AtMIN7-HA (AtMIN7-HA): no interaction

B2: HopM1101-712: HopM1 truncated derivative lacking the first 100 aa (SEQ ID NO:98) (protein, listed as Pseudomonas syringae)
chain: LLQAFKAEHGTAPVSGAPMISSRAALLIGSLLQAEPLPFEVMAEKLSPERYQLKQFQGSDLQQRLEKFAQPGQIPDKAEVGQLIKGFAQSVADQLEHFQLMHDASPATVGQHAKADKATLAVSQTALGEYAGRASKAIGEGLSNSIASLDEHISALDLTLQDAEQGNKESLHADRQALVDAKTTLVGLHADFVKSPEAKRLASVAAHTQLDNVVSDLVTARNTVGGWKGAGPIVAAAVPQFLSSMTHLGYVRLSTSDKLRDTIPETSSDANMLKASIIGMVAGIAHETVNSVVKPMFQAALQKTGLNERLNMVPMKAVDTNTVIPDPFELKSEHGELVKKTPEEVAQDKAFVKSERALLNQKKVQGSSTHPVGELMAYSAFGGSQAVRQMLNDVHQINGQTLSARALASGFGGAVSASSQTLLQLKSNYVDPQGRKIPVFTPDRAESDLKKDLLKGMDLREPSVRTTFYSKALSGIQSSALTSALPPVTAQAEGASGTLSAGAILRNMALAATGSVSYLSTLYTNQSVTAEAKALKAAGMGGATPMLDRTETALNNIRHPNRESLPHTFQKSTLSGIPRVAENAYHMGRGALQLPTQMAVDTVRVVDEGVLNAVASAREALKQPTKDDDALRALEEGLLDPR
- complementation of the virulence defect (multiplication, disease symptoms) (Pst DC3000 ΔCEL mutant): partially restored

B3: HopM11-300: N-terminal protective fragment of HopM1, amino acids 1-300 (SEQ ID NO:82) (protein, listed as Pseudomonas syringae)
chain: MISSRIGGAGGVELSRVNQQHDTVPAQTAHPNAVTAGMNPPLTPDQSGSHATESSSAGAARLNVAARHTQLLQAFKAEHGTAPVSGAPMISSRAALLIGSLLQAEPLPFEVMAEKLSPERYQLKQFQGSDLQQRLEKFAQPGQIPDKAEVGQLIKGFAQSVADQLEHFQLMHDASPATVGQHAKADKATLAVSQTALGEYAGRASKAIGEGLSNSIASLDEHISALDLTLQDAEQGNKESLHADRQALVDAKTTLVGLHADFVKSPEAKRLASVAAHTQLDNVVSDLVTARNTVGGWKGA
modifications: 6xHis tag
- effect on the function of full-length HopM1 delivered from the infecting bacteria ([2]; fragment expressed in transgenic Arabidopsis): dominant-negative effect
- disease symptoms (necrosis and chlorosis) and bacterial multiplication ([2]; transgenic Arabidopsis vs Col-0 gl1 or plants expressing other truncated derivatives): significantly reduced
- physical interaction with AtMIN7-HA (AtMIN7-HA): physical interaction
- interactors recovered in Y2H screen [3]: 21
